According to patent publication US20210292396A1 (INTERNATIONAL AIDS VACCINE INITIATIVE, published 2021):

Tests used:
[1] = molecular target: gp120 (isolate not stated; FIG. 19) (HIV)
[2] = molecular target: HIV Env of isolate CNE19 (HIV); assay: cell-based or functional assay
[3] = molecular target: HIV Env of isolate Ce704809221_1B3 (HIV); assay: cell-based or functional assay
[4] = molecular target: HIV Env of isolate BJOX015000.11.5 (HIV); assay: cell-based or functional assay
[5] = molecular target: HIV Env of isolate X1193_c1 (HIV); assay: cell-based or functional assay
[6] = molecular target: HIV Env of isolate CNE5 (HIV); assay: cell-based or functional assay

Binder | EC50 (read off the curve) [1] [µg/mL] | neutralization IC50 [2] [µg/mL] | neutralization IC50 [3] [µg/mL] | neutralization IC50 [4] [µg/mL] | neutralization IC50 [5] [µg/mL] | neutralization (Table 6 value) [6]
PGT-121 (antibody, V domains shown) VH: QMQLQESGPGLVKPSETLSLTCSVSGASISDSYWSWIRRSPGKGLEWIGYVHKSGDTNYSPSLKSRVNLSLDTSKNQVSLSLVAATAADSGKYYCARTLHGRRIYGIVAFNEWFTYFYMDVWGNGTQVTVSS VL: SDISVAPGETARISCGEKSLGSRAVQWYQHRAGQAPSLIIYNNQDRPSGIPERFSGSPDSPFGTTATLTITSVEAGDEADYYCHIWDSRVPTKWVFGGGTTLTVLG | ~0.6 | 0.008 | 0.025 | > 50 |  | 
ePGT121.15.H1.L1 (antibody, V domains shown) VH: QMQLQESGPGLVKPGETLSLTCSVSGASISSSYWSWLRETPGKGLEWIGYTHHSGDTNYAPSLKSRVHLGLHPSKNQVSLSLTSVTAADTAVYYCARTLHGRRIYGVVAFNEWFTYFYWEVWGNGTQVTVSS VL: SDISVAPGETVRISCGGESIGSRAVQWYQHRAGQAPKLIIYNNQDRPPGIPERFSGSPDIDFGTTATLTITNVEAGDEATYYCHIWDSRRPTNWVFGGGTTLTVL |  |  |  | > 50 | 0.0001 | 
ePGT121.15.H6.L1 (antibody, V domains shown) VH: QMQLQESGPGLVKPGETLSLTCSVSGASISSSYWSWLRETPGKGLEWIGYTHHSGDTNYAPSLKSRVHLGLHPSKNQVSLSLTSVTAADTAVYYCARTLHGRRIYGVVAFNEFFTYFYWEVWGKGTQVTVSS VL: SDISVAPGETVRISCGGESIGSRAVQWYQHRAGQAPKLIIYNNQDRPPGIPERFSGSPDIDFGTTATLTITNVEAGDEATYYCHIWDSRRPTNWVFGGGTTLTVL |  |  |  |  |  | 2.72
